T1: influenza A minimal peptide VPNGTLVKTITNDQI (spotted for dot blot) (Influenza A virus (H3 hemagglutinin …))
T1 chain: VPNGTLVKTITNDQI

T2: EBV minimal peptide PPSTSSKLRPRWTFT (spotted for dot blot) (Human herpesvirus 4 (Epstein-Barr …))
T2 construct: also called EBV gp350 minimal peptide; 72153; source: "recombinant peptide" spotted on nitrocellulose
T2 chain: PPSTSSKLRPRWTFT

B1: flu_c504 (antibody, V domains shown)
VH: EVQLVQSGAEVKKPGESLKISCKASGYTFTRYWIAWVRQMPGKGLEWMGIIYPGDSDTRYNPSFQGQVTISADKSINTAYLQWSSLKASDTAIYYCAMCVGSPTCYGWFDPWGQGTLVTVSS
VL: DIVMTQSPDSLAVSLGERATINCKSSLNILYSSNKKNYLAWYQQKPGQPPKLLIYWASTRESGVPDRFSGSGSGTDFTLTISSLQAEDVAVYYCQQYHSIPYTFGQGSKLEIK
B2: EBV_c3 (antibody, V domains shown)
VH: QVHLVQSGAEVKKSGASVKVSCKASGFTFTNHDINWVRQAPGQGLEWMGWINPNSGNTGFAQKFRGRVTLTRNNSITTAYMELRGLTYEDTAIYYCARAFCNSDRCSPELFDPWGQGTLVTVSS
VL: QSVLTQPPSVSADPGQRVTISCSGSSSNIGNSYVSWYQQLPGTAPRFLIYDNNKRTSGIPDRFSGSKSGTSATLAITGLQTGDEADYYCATWDTSLRGVVFGGGTKLTVL
notes: recombinant human IgG; source: Expi293 or ExpiCHO, recombinant; filtered culture supernatant
B3: EBV_c77 (antibody, V domains shown)
VH: B2 VH with K13R, R65Q, T87R
VL: B2 VL with S25T, S26G, S32N
notes: recombinant human IgG
B4: EBV_c138 (antibody, V domains shown)
VH: B2 VH with T87K
VL: B2 VL with Q16H, S25T, S32N, A75T, T77S
notes: recombinant human IgG
B5: EBV_c127 (antibody, V domains shown)
VH: B2 VH with S14F, K19Q, T87R
VL: B2 VL with S25T, N31K, S32N, Y33F, L40F, R46K, T56A, T73I, T94N, V100L
notes: recombinant human IgG
B6: EBV_c150 (antibody, V domains shown)
VH: QVLLVQSGAEVRKPGASVKLSCTASGYNFTNYYIHWVRQAPGQGLEWMGILNPTGGGTIYPHNFRGRVTMTRETSTSTAYMELKNLTSDDTAVYYCARVPPDDGYFDYWGQGALVTVSS
VL: SYEPTQPPSVSVSPGQTARITCSGDALPKRYVYWYQQKSGQAPALVIYDDTKRPSGIPERFSGSSSGTMATLTINGAQVEDEADYYCYTTGSSVSHVVFGGGTKLTVL
notes: recombinant human IgG
B7: EBV_c57 (antibody, V domains shown)
VH: QVQLVQSGAEVKKPGASVKVSCKASGYTFTSYDINWVRQAPGQGLEWLGWMNPNNENTGYAQKFQGRIIMTRNTSIDTVYMELSSLRSEDTAVYYCEAIAAVSATEGAFDIWGQGTMVTVSS
VL: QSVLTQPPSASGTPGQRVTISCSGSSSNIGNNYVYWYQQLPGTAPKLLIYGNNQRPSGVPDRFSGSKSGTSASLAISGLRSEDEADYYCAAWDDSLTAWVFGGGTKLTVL
notes: recombinant human IgG
B8: EBV_c40 (antibody, V domains shown)
VH: QVQMVQSGAEVKRPGDSVRVSCKASGYIFTNYHLHWVRQAPGQGLEWMGIVTPNGSRTNYAQKFKGRVIMSSEASTNTLYMDLSSLKSEDTAVYFCARARDLYGDSDFDYWGQGTPVMVSS
VL: SYELSQPPSVSVSPGQTASVSCSGDSLGDKYVSWYQQRPGQSPVVVIYQDRKRPSGIPERFSGSNSGKAATLTISGAQAVDEATYFCQAWESSNVVFGGGTTLTVL
notes: recombinant human IgG
B9: EBV_c40 with light chain D51K (antibody, V domains shown)
VH: B8 VH
VL: B8 VL with D50K
notes: source: Expi293 or ExpiCHO, recombinant; filtered culture supernatant
B10: EBV_c98 (antibody, V domains shown)
VH: QVQLVESGGGVVQPGRSLRLSCAASGITLSSYGMHWVRQAPGKGLEWVAVISYDGSKKDYGDSVKGRFTISRDNFKNTLYLQMSSLRAEDTAVYYCAKDTIFDGMDVWGQGTTVTVSS
VL: DVVMTQSPLSLPGTLGQPASISCRSSQSLVYSDGNTYLNWFQQRPGQSPRRLIYQVSNRDSGVPDRFSGSGSGTDFTLTISKVEAEDVGVYYCMQSTHWPLTFGGGTKVEIK
notes: recombinant human IgG
B11: EBV_c186 (antibody, V domains shown)
VH: QVHLVQSGTEVRKPGASVKISCETSGFNFSDYYVHWVRQAPGQGLEWMGIINAGGGSTSYAQRFRGRVTVTRDTSTRSVYMELRSLAPNDTAVYYCTRDRDQRLLFDYWGQGSLLIVSS
VL: SSELTQPPSVSVSPGQTARITCSGDALPKNYAYWYQQKSGQAPVLVIYEDNKRPSGIPERFSGSSSGTTATLTISGAQMEDEGDYYCYSKDRFGGGTKVTVL
notes: recombinant human IgG
B12: EBV_c9 (antibody, V domains shown)
VH: QVQLVQSGAEVKKPGASVKISCKASGYNFTNYYMHWVRQAPGQGLEWMGVINPHDNTNYAQKFRGRFIVTKDTSTTTLHMELRGLRSEDTAVYYCARGPDYVGISSPFDYWGQGTLVTVSS
VL: SHELTQPPSVPVSPGQTARITCSGDGLPKNYAYWYQQKSGQAPVLVIYEDRKRPSGIPERFSGSSSGTMATLTISGAQVEDEADYYCYSGDSNGNHWVFGGGTKLTVL
notes: recombinant human IgG
B13: EBV_c19 (antibody, V domains shown)
VH: QVQLVQSGAEVKKPGASVKLSCKASGYNFTNYYMHWVRQAPGQGLEWMGVINHGGLTNYAQRFRGRFIVTRDTSTTTLHMELRSLRSEDTAVYYCARGPDYGGNSSPFDNWGQGTLVTVSS
VL: B12 VL with S92I
notes: recombinant human IgG
B14: EBV_c149 (antibody, V domains shown)
VH: QVQLVQSGAEVKKPGASVKVSCKASGYNFTNYYMHWVRQAPGQGLEWMGVINPDGGSTSYAQKFRGRFIVTRDTSTTTLHMELRSLRSEDTAVYFCARGPDYVGISSPFDFWGQGTLVTVSS
VL: B12 VL
notes: recombinant human IgG
B15: EBV_c61 (antibody, V domains shown)
VH: B12 VH with I20V, Y33F, I51L, P53S, H54G, D55A, K71R, G84S, Y101S, V102S
VL: B12 VL with Y31F, Q37K, M69T, V79E, E80D, D84E, S92T
notes: recombinant human IgG
B16: EBV_c63 (antibody, V domains shown)
VH: QVQLVQSGAEVKKPGASVKVSCKASGYTFTSYYIHWVRQAPGQGLEWMGIINPSDGTTDYAQRLQGRVTMTRVTSTSTVYMELSSLRSEDTAVYYCARDREQMVRGIIISNGLDVWGQGTTVTVSS
VL: QSALTQPASVSGSPGQSITFSCTGTSSDVGGYNFVSWYQQHPGKAPKLMIYDVTNRPSGVSNRFSGSKSGNTASLTISGLQAEDEADYYCSSYTSSSTLVFGTGTKVTVL
notes: recombinant human IgG
B17: EBV_c124 (antibody, V domains shown)
VH: QVQLVQSGAEVRKPGASVKVSCKASGYTFNTYFIQWVRQAPGQGLEWMGVINSSGSGTRYAPKFRGRVILTRDTSTSTAFMELSSLTSEDTAVYYCARAAEGDYGDSALDYWGQGTLVSVSS
VL: SYELTQPHSVSVSPGQTASIACSGEKLDKKYTCWYQQRPGQSPVLVIYQDRKRPSGIPERFSGSNSGNTATLTISGTQAIDEADYYCQVWDSNTVVFGGGTKLTVL
notes: recombinant human IgG
B18: EBV_c124 with light chain D51K (antibody, V domains shown)
VH: B17 VH
VL: B17 VL with D50K
notes: as for B9
B19: EBV_c83 (antibody, V domains shown)
VH: QEQLVQSGTAVKKPGASVKVSCKTSRDTFTIYYIHWVRQAPGQGLEWMGIINPSGGNTSHAQKFQGRVTMTSDASTSTVYMELSSLRFEDTATYYCARVGYNWGSHSVSSPGAMDVWGQGTTVSVSS
VL: SIELTQPSSVSVSPGQTATITCSGDVLPKQYAYWYQQKPGRAPMLVVYKDSERPSGISERFSGSSAGTAVTLTISAVQAEDEADYYCQSADTGGTYVIFGGGTKLTVL
notes: recombinant human IgG
B20: EBV_c120 (antibody, V domains shown)
VH: QVHLVQSGAEVKKPGASVKVSCKASGFAFTTYDINWVRQAAGQGLEWMGWMNPNSGNRGYAQKFQGRVTMTRNTSITTAYMELTSLTSEDTAVYYCARAYCNSNRCSPELFDPWGQGTQVTVSS
VL: QSVLTQPPSVSAAPGQMVTISCSGSSSNIGNNFVSWYQQLPGTVPKYVIYDNNKRPSGIPERFSGSRSGTSATLGITGLQTGDEADYYCATWDSSLRGVVFGGGTKLTVL
notes: as for B2
B21: EBV_c10 (antibody, V domains shown)
VH: B20 VH with K23Q, Q43H, S88P, E89D, Y100F
VL: B20 VL with S25G, L40I, N53D, G75V, S94N
notes: recombinant human IgG
B22: EBV_c101 (antibody, V domains shown)
VH: QVHLVQSGTEVKKPGASVKVSCKASGYTFIDYFIHWVRQAPGQGLEWMGIINPGGGSTSYAQKFRGRVTVTRDASTSTVYLELRSLRSDDSAVYYCARGTAVSTNLGLLFDLWGQGTLVSVSS
VL: SYELTQPPSVSVSPGQTARITCSGDDLPKNYAYWYQQKSGQAPTLVINEDNKRPSGIPERFSGSSSGTMATLTISGAQVEDEADYYCFSADSSGTHSVFGGGTKVTVL
notes: recombinant human IgG

Changes are numbered by the printed parent chain.

For one assay, the target named is T1, influenza A minimal peptide ….
Assay: not given
Conditions: not given
Regarding B1, the binding result is recorded as “binds”.

The next assay concerns the target T2, EBV minimal peptide PPSTSSKLRPRWTFT …. The assay is described as follows: far-Western, overlay or dot blot. The note with it: one partner purified.
As for B2, the binding result was “binds”.
Turning to B3, the binding result is “binds”.
For B4, the binding result is reported as “binds”.
For the molecule B5, the binding result is reported as “binds”.
Regarding B6, the binding result is listed as “binds”.
For the molecule B7, the binding result is listed as “binds”.
For the molecule B8, the binding result is recorded as “binds”.
In the case of B9, the binding result is reported as “binds”.
As for B10, the binding result is “binds”.
As for B11, the binding result is “binds”.
Turning to B12, the binding result is “binds”.
Consider B13, for which the binding result is “binds”.
Same read-out and setting: in the case of B14 it was “binds”.
Consider B15, for which the binding result is recorded as “binds”.
For the molecule B16, the binding result is reported as “binds”.
On to B17, for which the binding result is given as “binds”.
In the case of B18, the binding result was “binds”.
Regarding B19, the binding result was “binds”.
For the molecule B20, the binding result is “binds”.
Still for that read-out and setting: in the case of B21 it was “binds”; in that of B22, “binds”.

Values taken from paper PMC10273302 (Science (New York, N.Y.), 2023).
